Values of other authors, collected in US20150086530A1, “DOSING REGIMENS FOR THE TREATMENT OF POMPE DISEASE” (Amicus Therapeutics, Inc., priority 2012, published 2015).

Conditions: Banati et al. 2011, cited from earlier work

Q: With “rhGAA: human recombinant acid α-glucosidase; alglucosidase alfa (Myozyme/Lumizyme) enzyme replacement therapy given by intravenous infusion” as the substance, how does the “administered ERT captured by circulating antibodies” value read?
A: approximately 40%

Q: What about the “Pompe patients with infusion associated reactions” value (patients receiving ERT infusions) of the same substance?
A: approximately 50%
